Article PMC5595295 (Acta Pharmaceutica Sinica. B, 2017)

Target: hA3G-HA (human, UniProt Q9HC16 1-384)
Experiment: co-IP

percent inhibition of binding to wild type hA3G (co-IP, band quantification)	Binder
~80%	hA3G W127A-EYFP (natural protein, human, UniProt Q9HC16 1-384, looked up) MKPHFRNTVERMYRDTFSYNFYNRPILSRRNTVWLCYEVKTKGPSRPPLDAKIFRGQVYSELKYHPEMRFFHWFSKWRKLHRDQEYEVTWYISWSPCTKCTRDMATFLAEDPKVTLTIFVARLYYFADPDYQEALRSLCQKRDGPRATMKIMNYDEFQHCWSKFVYSQRELFEPWNNLPKYYILLHIMLGEILRHSMDPPTFTFNFNNEPWVRGRHETYLCYEVERMHNDTWVLLNQRRGFLCNQAPHKHGFLEGRHAELCFLDVIPFWKLDLDQDYRVTCFTSWSPCFSCAQEMAKFISKNKHVSLCIFTARIYDDQGRCQEGLRTLAEAGAKISIMTYSEFKHCWDTFVDHQGCPFQPWDGLDEHSQDLSGRLRAILQNQEN
< 50%	hA3G Y124A-EYFP (natural protein, human, UniProt Q9HC16 1-384, looked up) MKPHFRNTVERMYRDTFSYNFYNRPILSRRNTVWLCYEVKTKGPSRPPLDAKIFRGQVYSELKYHPEMRFFHWFSKWRKLHRDQEYEVTWYISWSPCTKCTRDMATFLAEDPKVTLTIFVARLAYFWDPDYQEALRSLCQKRDGPRATMKIMNYDEFQHCWSKFVYSQRELFEPWNNLPKYYILLHIMLGEILRHSMDPPTFTFNFNNEPWVRGRHETYLCYEVERMHNDTWVLLNQRRGFLCNQAPHKHGFLEGRHAELCFLDVIPFWKLDLDQDYRVTCFTSWSPCFSCAQEMAKFISKNKHVSLCIFTARIYDDQGRCQEGLRTLAEAGAKISIMTYSEFKHCWDTFVDHQGCPFQPWDGLDEHSQDLSGRLRAILQNQEN
